US20240228562A1, “NOVEL LIPOCALIN MUTEINS SPECIFIC FOR CONNECTIVE TISSUE GROWTH FACTOR (CTGF)” (PIERIS PHARMACEUTICALS GMBH, priority 2021, published 2024)
Where a chain is given by its changes, count along the chain named.

B1: SEQ ID NO: 62: fusion protein comprising two CTGF-binding lipocalin muteins (protein)
chain: QDSTSDLIPAPPLSKVPLQQNFQDNQFQGKWYVVGRAGNNQLREDKSPPKMWATIYELKEDKSYDVTHVHFSTKKCRYIIDTFVPGSQPGEFTAGAIKSGPGLTSPLVRVVSTNYNQHAMVFFKWVTQNREWFTITLYGRTKELTSELKENFIRFSKSLGLPENHIVFPVPIDQCIDGGGGGSGGGGSGGGGSQDSTSDLIPAPPLSKVPLQQNFQDNQFQGKWYVVGWAGNVKLREDKQPQKMSATIYELKEDKSYDVTEVVFEQKKCHYIIKTFVPGSQPGEFTAGDIKSPPGYTSSLVRVVSTNYNQHAMVFFKKVSQNREFFWITLYGRTKELTSELKENFIRFSKSLGLPENHIVFPVPIDQCIDG
modifications: fusion protein
B2: SEQ ID NO: 63: fusion protein comprising two CTGF-binding lipocalin muteins (protein)
chain: QDSTSDLIPAPPLSKVPLQQNFQDNQFQGKWYVVGRAGNNQLREDKSPPKMWATIYELKEDKSYDVTHVHFSTKKCRYIIDTFVPGSQPGEFTAGAIKSGPGLTSPLVRVVSTNYNQHAMVFFKWVTQNREWFTITLYGRTKELTSELKENFIRFSKSLGLPENHIVFPVPIDQCIDGGGGGSGGGGSGGGGSQDSTSDLIPAPPLSKVPLQQNFQDNQFQGKWYVVGLAGNAILREDKQPAKMFATIYELKEDKSYDVTSVRFEAKSCKYTIKTFVPGSQPGEFTAGYIKSAPGQTSTLVRVVSTNYNQHAMVFFKHVTQNREIFVITLYGRTKELTSELKENFIRFSKSLGLPENHIVFPVPIDQCIDG
modifications: fusion protein
B3: SEQ ID NO: 64: fusion protein comprising two CTGF-binding lipocalin muteins (protein)
chain: QDSTSDLIPAPPLSKVPLQQNFQDNQFQGKWYVVGLAGNYRLREDKDPSKMGATIYELKEDKSYDVTQVQFDDKKCLYVIETFVPGSQPGEFTLGAIKSYPGLTSQLVRVVSTNYNQHAMVFVKKVWPNLEYFQIVLYGRTKELTSELKENFIRFSKSLGLPENHIVFPVPIDQCIDGGGGGSGGGGSGGGGSQDSTSDLIPAPPLSKVPLQQNFQDNQFQGKWYVVGLAGNAILREDKQPAKMFATIYELKEDKSYDVTSVRFEAKSCKYTIKTFVPGSQPGEFTAGYIKSAPGQTSTLVRVVSTNYNQHAMVFFKHVTQNREIFVITLYGRTKELTSELKENFIRFSKSLGLPENHIVFPVPIDQCIDG
modifications: fusion protein
B4: SEQ ID NO: 69: fusion protein comprising two CTGF-binding lipocalin muteins (protein)
chain: QDSTSDLIPAPPLSKVPLQQNFQDNQFQGKWYVVGLAGNAILREDKQPAKMFATIYELKEDKSYDVTSVRFEAKSCSYTSKTFVPGSQPGEFTAGNIKSAPGQTSTLVRVVSTNYNQHAMVFFKHVSQNRETFVITLYGRTKELTSELKENFIRFSKSLGLPENHIVFPVPIDQCIDGGGGGSGGGGSGGGGSQDSTSDLIPAPPLSKVPLQQNFQDNQFQGKWYVVGLAGNYRLREDKDPSKMGATIYELKEDKSYDVTQVQFDDKKCLYVIETFVPGSQPGEFTLGAIKSYPGLTSQLVRVVSTNYNQHAMVFVKKVWPNLEYFQIVLYGRTKELTSELKENFIRFSKSLGLPENHIVFPVPIDQCIDG
modifications: fusion protein
B5: SEQ ID NO: 72: fusion protein comprising two CTGF-binding lipocalin muteins (protein)
chain: B4 chain with Q47Y, A73N, S77V, S80I, A94T, T132F
modifications: fusion protein
B6: SEQ ID NO: 75: fusion protein comprising two CTGF-binding lipocalin muteins (protein)
chain: B4 chain with S77K, S80I, N96Y, S127T, T132I
modifications: fusion protein
B7: SEQ ID NO: 68: fusion protein comprising two CTGF-binding lipocalin muteins (protein)
chain: QDSTSDLIPAPPLSKVPLQQNFQDNQFQGKWYVVGLAGNAILREDKQPAKMFATIYELKEDKSYDVTSVRFEAKSCSYTSKTFVPGSQPGEFTAGNIKSAPGQTSTLVRVVSTNYNQHAMVFFKHVSQNRETFVITLYGRTKELTSELKENFIRFSKSLGLPENHIVFPVPIDQCIDGGGGGSGGGGSGGGGSQDSTSDLIPAPPLSKVPLQQNFQDNQFQGKWYVVGWAGNVKLREDKQPQKMSATIYELKEDKSYDVTEVVFEQKKCHYIIKTFVPGSQPGEFTAGDIKSPPGYTSSLVRVVSTNYNQHAMVFFKKVSQNREFFWITLYGRTKELTSELKENFIRFSKSLGLPENHIVFPVPIDQCIDG
modifications: fusion protein
B8: SEQ ID NO: 71: fusion protein comprising two CTGF-binding lipocalin muteins (protein)
chain: B7 chain with Q47Y, A73N, S77V, S80I, A94T, T132F
modifications: fusion protein
B9: SEQ ID NO: 73: fusion protein comprising two CTGF-binding lipocalin muteins (protein)
chain: B7 chain with Q47Y, A73N, S77V, A94T, T132F
modifications: fusion protein
B10: SEQ ID NO: 70: fusion protein comprising two CTGF-binding lipocalin muteins (protein)
chain: QDSTSDLIPAPPLSKVPLQQNFQDNQFQGKWYVVGWAGNVKLREDKQPQKMSATIYELKEDKSYDVTEVVFEQKKCHYIIKTFVPGSQPGEFTAGDIKSPPGYTSSLVRVVSTNYNQHAMVFFKKVSQNREFFWITLYGRTKELTSELKENFIRFSKSLGLPENHIVFPVPIDQCIDGGGGGSGGGGSGGGGSQDSTSDLIPAPPLSKVPLQQNFQDNQFQGKWYVVGLAGNAILREDKQPAKMFATIYELKEDKSYDVTSVRFEAKSCKYTIKTFVPGSQPGEFTAGYIKSAPGQTSTLVRVVSTNYNQHAMVFFKHVTQNREIFVITLYGRTKELTSELKENFIRFSKSLGLPENHIVFPVPIDQCIDG
modifications: fusion protein

Test: Thermal stability assessment by nanoDSC
Format: physicochemical
Conditions: 1 mg/mL in PBS, scan 25-100° C. at 1° C./min
Protocol: To determine the melting temperatures (Tms) of the lipocalin muteins, which is a general indicator for folding stability, the CTGF specific muteins, at a protein concentration of 1 mg/mL in PBS (Gibco), were scanned (25-100° C.) at 1° C./min using a capillary nanoDSC instrument (CSC 6300, TA Instruments). […] Several unfolding events can contribute to the observed thermogram. In cases with multiple transitions, the one with the major unfolding energy best represents the overall protein fold and is reported. Muteins were produced as described in Example 3. SEQ ID NOs: 3, 7, 9, 25, and 29 were expressed using E. coli, the other muteins were expressed using CHO cells.
The resulting maximum melting temperatures as well as the onset temperature of melting for exemplary lipocalin muteins and fusion proteins are listed in Table 3 below.

Molecule | ONSET MELTING
B1 | 53 °C
B2 | 50 °C
B3 | 56 °C
B4 | 57 °C
B5 | 62 °C
B6 | 58 °C
B7 | 61 °C
B8 | 67 °C
B9 | 71 °C
B10 | 55 °C

Same assay, conditions: 1 mg/mL in PBS, scan 25-100° C. at 1° C./min, major transition

Molecule | TM
B1 | 67 °C
B2 | 66 °C
B3 | 65 °C
B4 | 64 °C
B5 | 66 °C
B6 | 65 °C
B7 | 72 °C
B8 | 76 °C
B9 | 75 °C
B10 | 73 °C
